The text below walks through data of patent US20250205353A1 (SYNAFFIX B V, published 2025).

For experiment [1], the target named is T1, Nectin-4 on SK-BR-3 cells (UniProt Q96NY8 32-510, limits assumed).
T1 sequence (looked up): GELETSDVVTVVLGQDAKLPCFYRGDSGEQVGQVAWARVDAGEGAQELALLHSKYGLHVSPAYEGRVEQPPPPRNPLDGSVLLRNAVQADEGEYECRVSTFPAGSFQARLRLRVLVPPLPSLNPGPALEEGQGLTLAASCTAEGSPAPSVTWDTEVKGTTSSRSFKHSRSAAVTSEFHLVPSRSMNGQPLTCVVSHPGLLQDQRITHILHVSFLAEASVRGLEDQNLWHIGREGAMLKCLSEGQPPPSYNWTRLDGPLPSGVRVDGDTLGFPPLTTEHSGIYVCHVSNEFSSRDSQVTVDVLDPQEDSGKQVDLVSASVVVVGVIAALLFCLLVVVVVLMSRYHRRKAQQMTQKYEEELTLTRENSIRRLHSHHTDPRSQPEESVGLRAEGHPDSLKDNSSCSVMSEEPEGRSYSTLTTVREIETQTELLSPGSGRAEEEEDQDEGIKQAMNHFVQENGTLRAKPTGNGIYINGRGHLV
In words: cell-based or functional assay.

Experiment [2] deals with T2, Human Nectin-4 (PVRL4 Protein, ECD, His Tag) (human, UniProt Q96NY8 32-349).
T2 construct: extracellular domain; Recombinant protein captured on nickel NTA plates; also called hNectin-4; PVRL4-His; not shown: His tag
T2 sequence (looked up): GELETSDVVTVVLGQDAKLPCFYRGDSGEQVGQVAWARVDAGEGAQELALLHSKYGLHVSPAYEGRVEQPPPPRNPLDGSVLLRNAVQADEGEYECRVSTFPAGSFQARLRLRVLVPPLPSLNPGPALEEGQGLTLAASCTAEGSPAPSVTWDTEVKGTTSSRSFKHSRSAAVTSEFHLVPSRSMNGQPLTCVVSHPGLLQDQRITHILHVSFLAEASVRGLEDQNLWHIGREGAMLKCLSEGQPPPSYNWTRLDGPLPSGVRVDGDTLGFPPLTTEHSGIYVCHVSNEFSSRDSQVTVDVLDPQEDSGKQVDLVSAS
In words: ELISA; His-tagged Nectin-4 ECD on nickel NTA plates, detection with anti-human IgG-HRP. The method, then:
Nickel NTA plates (Pierce™ Nickel coated plated, ThermoScientific™) were washed three times prior to use. Human Nectin-4 (PVRL4 Protein, ECD, His Tag) was dissolved at a concentration of […] in 0.1% BSA in PBS (PBA). 100 μL was added to each well and incubated while shaking for 1 hour at room temperature. After removal, the plate was washed 3x with 0.05% Tween-20 in PBS (washing buffer). ADCs were diluted in 0.1% PBA to a final concentration of 8 μg/mL and 100 μL was added to each well (in triplo). ADCs were incubated for 1 h at room temperature. Prior to the addition of 100 μL 1:1000 dilution of secondary antibody (Goat anti-human IgG, HRP conjugate, Invitrogen) the plate was washed 3x with washing buffer. The plate was incubated again for 1 h at room temperature and subsequently washed 3x with washing buffer and 3x with PBS. Finally, 100 μL TMB ELISA substrate (1 Step™ Turbo TMB ELISA substrate, ThermoScientific™) was added and incubated for 1 minute. The absorbance of the colorimetric signal was measured with Infinite® M1000 (Tecan) at 652 nm. Data was plotted corrected for the background (see FIG. 8).
(An ELISA detects its analyte on a solid surface through an enzyme-linked reagent.)

B1: Enfortumab YTE-4 (other)
heavy: EVQLVESGGGLVQPGGSLRLSCAASGFTFSSYNMNWVRQAPGKGLEWVSYISSSSSTIYYADSVKGRFTISRDNAKNSLSLQMNSLRDEDTAVYYCARAYYYGMDVWGQGTTVTVSSASTKGPSVFPLAPSSKSTSGGTAALGCLVKDYFPEPVTVSWNSGALTSGVHTFPAVLQSSGLYSLSSVVTVPSSSLGTQTYICNVNHKPSNTKVDKRVEPKSCDKTHTCPPCPAPELLGGPSVFLFPPKPKDTLYITREPEVTCVVVDVSHEDPEVKFNWYVDGVEVHNAKTKPREEQYNSTYRVVSVLTVLHQDWLNGKEYKCKVSNKALPAPIEKTISKAKGQPREPQVYTLPPSREEMTKNQVSLTCLVKGFYPSDIAVEWESNGQPENNYKTTPPVLDSDGSFFLYSKLTVDKSRWQQGNVFSCSVMHEALHNHYTQKSLSLSPGK
light: DIQMTQSPSSVSASVGDRVTITCRASQGISGWLAWYQQKPGKAPKFLIYAASTLQSGVPSRFSGSGSGTDFTLTISSLQPEDFATYYCQQANSFPPTFGGGTKVEIKRTVAAPSVFIFPPSDEQLKSGTASVVCLLNNFYPREAKVQWKVDNALQSGNSQESVTEQDSKDSTYSLSSTLTLSKADYEKHKVYACEVTHQGLSSPVTKSFNRGEC
modifications: linker-payload 4 (BCN-HS-(vc-PABC-MMAE)2) clicked to 6-N3-GalNAc on the trimmed core GlcNAc of the heavy-chain glycan; average DAR 3.67
B1: the “IC50 (nM), in vitro cytotoxicity on SK-BR-3 cells (ATPlite luminescence)” value in experiment [1] turned out to be 0.05 nM.

B2: enfortumab (I) (antibody, human IgG1, kappa)
heavy: not shown
light: DIQMTQSPSSVSASVGDRVTITCRASQGISGWLAWYQQKPGKAPKFLIYAASTLQSGVPSRFSGSGSGTDFTLTISSLQPEDFATYYCQQANSFPPTFGGGTKVEIKRTVAAPSVFIFPPSDEQLKSGTASVVCLLNNFYPREAKVQWKVDNALQSGNSQESVTEQDSKDSTYSLSSTLTLSKADYEKHKVYACEVTHQGLSSPVTKSFNRGEC
notes: IgG transiently expressed in CHO K1 cells; also called Ha22-2(2,4)6.1
Regarding B2, in experiment [2], the binding result is “binds”.

B3: enfortumab YTE (II) (antibody, human IgG1, kappa)
heavy: EVQLVESGGGLVQPGGSLRLSCAASGFTFSSYNMNWVRQAPGKGLEWVSYISSSSSTIYYADSVKGRFTISRDNAKNSLSLQMNSLRDEDTAVYYCARAYYYGMDVWGQGTTVTVSSASTKGPSVFPLAPSSKSTSGGTAALGCLVKDYFPEPVTVSWNSGALTSGVHTFPAVLQSSGLYSLSSVVTVPSSSLGTQTYICNVNHKPSNTKVDKRVEPKSCDKTHTCPPCPAPELLGGPSVFLFPPKPKDTLYITREPEVTCVVVDVSHEDPEVKFNWYVDGVEVHNAKTKPREEQYNSTYRVVSVLTVLHQDWLNGKEYKCKVSNKALPAPIEKTISKAKGQPREPQVYTLPPSREEMTKNQVSLTCLVKGFYPSDIAVEWESNGQPENNYKTTPPVLDSDGSFFLYSKLTVDKSRWQQGNVFSCSVMHEALHNHYTQKSLSLSPGK
light: DIQMTQSPSSVSASVGDRVTITCRASQGISGWLAWYQQKPGKAPKFLIYAASTLQSGVPSRFSGSGSGTDFTLTISSLQPEDFATYYCQQANSFPPTFGGGTKVEIKRTVAAPSVFIFPPSDEQLKSGTASVVCLLNNFYPREAKVQWKVDNALQSGNSQESVTEQDSKDSTYSLSSTLTLSKADYEKHKVYACEVTHQGLSSPVTKSFNRGEC
notes: also called enfortumab YTE mutant
On to B3, for which the binding result in experiment [2] is “binds”.
